Our source for the IC50 values is patent US20160272683A1 (Novo Nordisk, published 2016).

Numbered stars: 1 amine (or outer) side, 2 acyl side, 3 side chain; on linkers, the order of the positions; unused ones are H or OH. * marks the point of attachment. C20 diacid = O=C(O)CCCCCCCCCCCCCCCCCCC(=O)*; C18 diacid = O=C(O)CCCCCCCCCCCCCCCCC(=O)*; γGlu = O=C(O)[C@H](CCC(=O)[*:2])N[*:1]

For assay [1], the target named is rat amylin receptor (rat calcitonin receptor with rat RAMP 3) (rat) (UniProt P32214). The experiment in a line: SPA competition vs 125I-rat amylin, membranes with rat CTR + rat RAMP3 (Assay VI).
Assay [2] concerns the target T1, human amylin receptor (human calcitonin receptor + human RAMP3) (human) (UniProt P30988).
T1 sequence (looked up) 1: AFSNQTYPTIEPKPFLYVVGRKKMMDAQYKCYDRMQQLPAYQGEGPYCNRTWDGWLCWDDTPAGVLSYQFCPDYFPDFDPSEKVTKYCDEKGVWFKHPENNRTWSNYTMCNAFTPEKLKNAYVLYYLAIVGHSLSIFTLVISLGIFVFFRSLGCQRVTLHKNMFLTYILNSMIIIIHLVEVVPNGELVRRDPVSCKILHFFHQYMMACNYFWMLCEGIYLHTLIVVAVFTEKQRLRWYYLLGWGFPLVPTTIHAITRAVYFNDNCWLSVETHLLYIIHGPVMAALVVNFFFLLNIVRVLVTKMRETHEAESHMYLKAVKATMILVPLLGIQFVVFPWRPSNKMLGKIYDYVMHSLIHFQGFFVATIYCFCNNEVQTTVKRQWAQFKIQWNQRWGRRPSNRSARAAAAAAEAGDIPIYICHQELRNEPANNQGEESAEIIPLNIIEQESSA
T1 sequence (looked up) 2: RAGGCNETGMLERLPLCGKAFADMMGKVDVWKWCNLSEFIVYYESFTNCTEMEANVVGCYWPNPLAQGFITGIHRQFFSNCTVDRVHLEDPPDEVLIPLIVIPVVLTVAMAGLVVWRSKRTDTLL
The experiment in a line: whole-cell competition vs 125I-rat amylin (Assay Va).

Assay [3] has as its target rat calcitonin receptor (rat) (UniProt P32214). The experiment in a line: SPA competition vs 125I-calcitonin, membranes with rat CTR (Assay VIII).

Broadly, the IC50 is the concentration that gives 50% inhibition. As to “[N-terminal(C18 diacid-gGlu-2xOEG), des1, 4G, 9V, 15Q, 21Q, 23Y, 30S, 31G, 32T, 33Y]mimylin (peptide)”, the IC50 in assay [1] was found to be 0.357 nM; in assay [2], 0.801 nM; in assay [3] it was 0.032 nM.

B1: [N-terminal(C20 diacid-gGlu), des1, 23Y, 30S, 31G, 32A]mimylin (peptide)
peptide: {C20 diacid-γGlu}-ASELSTAALGRLSAELHELATYPRTETGSGAP-NH2
SMILES: CC(C)C[C@H](NC(=O)[C@H](C)NC(=O)[C@H](C)NC(=O)[C@@H](NC(=O)[C@H](CO)NC(=O)[C@H](CC(C)C)NC(=O)[C@H](CCC(=O)O)NC(=O)[C@H](CO)NC(=O)[C@H](C)NC(=O)CC[C@H](NC(=O)CCCCCCCCCCCCCCCCCCC(=O)O)C(=O)O)[C@@H](C)O)C(=O)NCC(=O)N[C@@H](CCCNC(=N)N)C(=O)N[C@@H](CC(C)C)C(=O)N[C@@H](CO)C(=O)N[C@@H](C)C(=O)N[C@@H](CCC(=O)O)C(=O)N[C@@H](CC(C)C)C(=O)N[C@@H](Cc1c[nH]cn1)C(=O)N[C@@H](CCC(=O)O)C(=O)N[C@@H](CC(C)C)C(=O)N[C@@H](C)C(=O)N[C@H](C(=O)N[C@@H](Cc1ccc(O)cc1)C(=O)N1CCC[C@H]1C(=O)N[C@@H](CCCNC(=N)N)C(=O)N[C@H](C(=O)N[C@@H](CCC(=O)O)C(=O)N[C@H](C(=O)NCC(=O)N[C@@H](CO)C(=O)NCC(=O)N[C@@H](C)C(=O)N1CCC[C@H]1C(N)=O)[C@@H](C)O)[C@@H](C)O)[C@@H](C)O
In the case of B1, the figures for the IC50 in assay [1], in assay [2] and in assay [3] were 0.026 nM, 2.02 nM and 0.039 nM, respectively.

B2: [N-terminal(C20 diacid-gGlu), des1, 9S, 21S, 23Y, 30S, 31G, 33Y]mimylin (peptide)
peptide: {C20 diacid-γGlu}-ASELSTASLGRLSAELHELSTYPRTETGSGSY-NH2
SMILES: CC(C)C[C@H](NC(=O)[C@H](CO)NC(=O)[C@H](C)NC(=O)[C@@H](NC(=O)[C@H](CO)NC(=O)[C@H](CC(C)C)NC(=O)[C@H](CCC(=O)O)NC(=O)[C@H](CO)NC(=O)[C@H](C)NC(=O)CC[C@H](NC(=O)CCCCCCCCCCCCCCCCCCC(=O)O)C(=O)O)[C@@H](C)O)C(=O)NCC(=O)N[C@@H](CCCNC(=N)N)C(=O)N[C@@H](CC(C)C)C(=O)N[C@@H](CO)C(=O)N[C@@H](C)C(=O)N[C@@H](CCC(=O)O)C(=O)N[C@@H](CC(C)C)C(=O)N[C@@H](Cc1c[nH]cn1)C(=O)N[C@@H](CCC(=O)O)C(=O)N[C@@H](CC(C)C)C(=O)N[C@@H](CO)C(=O)N[C@H](C(=O)N[C@@H](Cc1ccc(O)cc1)C(=O)N1CCC[C@H]1C(=O)N[C@@H](CCCNC(=N)N)C(=O)N[C@H](C(=O)N[C@@H](CCC(=O)O)C(=O)N[C@H](C(=O)NCC(=O)N[C@@H](CO)C(=O)NCC(=O)N[C@@H](CO)C(=O)N[C@@H](Cc1ccc(O)cc1)C(N)=O)[C@@H](C)O)[C@@H](C)O)[C@@H](C)O
Consider B2, for which the IC50 turned out to be 0.046 nM in assay [1], 3.17 nM in assay [2] and 0.062 nM in assay [3].

B3: [N-terminal(C18 diacid-gGlu), des1, 6T, 9V, 14T, 21E, 30T, 31G, 32T]mimylin (peptide)
peptide: {C18 diacid-γGlu}-ASELTTAVLGRLTAELHELETLPRTETGTGTP-NH2
SMILES: CC(C)C[C@H](NC(=O)[C@H](CCC(=O)O)NC(=O)[C@H](C)NC(=O)[C@@H](NC(=O)[C@H](CC(C)C)NC(=O)[C@H](CCCNC(=N)N)NC(=O)CNC(=O)[C@H](CC(C)C)NC(=O)[C@@H](NC(=O)[C@H](C)NC(=O)[C@@H](NC(=O)[C@@H](NC(=O)[C@H](CC(C)C)NC(=O)[C@H](CCC(=O)O)NC(=O)[C@H](CO)NC(=O)[C@H](C)NC(=O)CC[C@H](NC(=O)CCCCCCCCCCCCCCCCC(=O)O)C(=O)O)[C@@H](C)O)[C@@H](C)O)C(C)C)[C@@H](C)O)C(=O)N[C@@H](Cc1c[nH]cn1)C(=O)N[C@@H](CCC(=O)O)C(=O)N[C@@H](CC(C)C)C(=O)N[C@@H](CCC(=O)O)C(=O)N[C@H](C(=O)N[C@@H](CC(C)C)C(=O)N1CCC[C@H]1C(=O)N[C@@H](CCCNC(=N)N)C(=O)N[C@H](C(=O)N[C@@H](CCC(=O)O)C(=O)N[C@H](C(=O)NCC(=O)N[C@H](C(=O)NCC(=O)N[C@H](C(=O)N1CCC[C@H]1C(N)=O)[C@@H](C)O)[C@@H](C)O)[C@@H](C)O)[C@@H](C)O)[C@@H](C)O
As for B3, the IC50 in assay [1] came out at 0.162 nM; in assay [2], 22.9 nM; in assay [3], 0.072 nM.

B4: [N-terminal(C20 diacid-gGlu), des1, 4G, 8L, 9V, 15Q, 21Q, 23Y, 30S, 31Q, 32T, 33Y]mimylin (peptide)
peptide: {C20 diacid-γGlu}-ASGLSTLVLGRLSQELHELQTYPRTETGSQTY-NH2
SMILES: CC(C)C[C@H](NC(=O)CNC(=O)[C@H](CO)NC(=O)[C@H](C)NC(=O)CC[C@H](NC(=O)CCCCCCCCCCCCCCCCCCC(=O)O)C(=O)O)C(=O)N[C@@H](CO)C(=O)N[C@H](C(=O)N[C@@H](CC(C)C)C(=O)N[C@H](C(=O)N[C@@H](CC(C)C)C(=O)NCC(=O)N[C@@H](CCCNC(=N)N)C(=O)N[C@@H](CC(C)C)C(=O)N[C@@H](CO)C(=O)N[C@@H](CCC(N)=O)C(=O)N[C@@H](CCC(=O)O)C(=O)N[C@@H](CC(C)C)C(=O)N[C@@H](Cc1c[nH]cn1)C(=O)N[C@@H](CCC(=O)O)C(=O)N[C@@H](CC(C)C)C(=O)N[C@@H](CCC(N)=O)C(=O)N[C@H](C(=O)N[C@@H](Cc1ccc(O)cc1)C(=O)N1CCC[C@H]1C(=O)N[C@@H](CCCNC(=N)N)C(=O)N[C@H](C(=O)N[C@@H](CCC(=O)O)C(=O)N[C@H](C(=O)NCC(=O)N[C@@H](CO)C(=O)N[C@@H](CCC(N)=O)C(=O)N[C@H](C(=O)N[C@@H](Cc1ccc(O)cc1)C(N)=O)[C@@H](C)O)[C@@H](C)O)[C@@H](C)O)[C@@H](C)O)C(C)C)[C@@H](C)O
For the molecule B4, the IC50 in assay [1] was 0.091 nM; in assay [2], 1.48 nM; in assay [3], 0.031 nM.

B5: [N-terminal(C20 diacid-gGlu), des1, 4G, 15Q, 21Q, 23Y, 25H, 30S, 31G, 32T, 33Y]mimylin (peptide)
peptide: {C20 diacid-γGlu}-ASGLSTAALGRLSQELHELQTYPHTETGSGTY-NH2
SMILES: CC(C)C[C@H](NC(=O)CNC(=O)[C@H](CO)NC(=O)[C@H](C)NC(=O)CC[C@H](NC(=O)CCCCCCCCCCCCCCCCCCC(=O)O)C(=O)O)C(=O)N[C@@H](CO)C(=O)N[C@H](C(=O)N[C@@H](C)C(=O)N[C@@H](C)C(=O)N[C@@H](CC(C)C)C(=O)NCC(=O)N[C@@H](CCCNC(=N)N)C(=O)N[C@@H](CC(C)C)C(=O)N[C@@H](CO)C(=O)N[C@@H](CCC(N)=O)C(=O)N[C@@H](CCC(=O)O)C(=O)N[C@@H](CC(C)C)C(=O)N[C@@H](Cc1c[nH]cn1)C(=O)N[C@@H](CCC(=O)O)C(=O)N[C@@H](CC(C)C)C(=O)N[C@@H](CCC(N)=O)C(=O)N[C@H](C(=O)N[C@@H](Cc1ccc(O)cc1)C(=O)N1CCC[C@H]1C(=O)N[C@@H](Cc1c[nH]cn1)C(=O)N[C@H](C(=O)N[C@@H](CCC(=O)O)C(=O)N[C@H](C(=O)NCC(=O)N[C@@H](CO)C(=O)NCC(=O)N[C@H](C(=O)N[C@@H](Cc1ccc(O)cc1)C(N)=O)[C@@H](C)O)[C@@H](C)O)[C@@H](C)O)[C@@H](C)O)[C@@H](C)O
As to B5, the results for the IC50 in assay [1], in assay [2] and in assay [3] were 0.026 nM, 0.142 nM and 0.031 nM, respectively.

B6: [N-terminal(C20 diacid-gGlu), des1, 9V, 15Q, 21Q, 23Y, 30S, 31G, 32T, 33Y]mimylin (peptide)
peptide: {C20 diacid-γGlu}-ASELSTAVLGRLSQELHELQTYPRTETGSGTY-NH2
SMILES: CC(C)C[C@H](NC(=O)[C@H](CCCNC(=N)N)NC(=O)CNC(=O)[C@H](CC(C)C)NC(=O)[C@@H](NC(=O)[C@H](C)NC(=O)[C@@H](NC(=O)[C@H](CO)NC(=O)[C@H](CC(C)C)NC(=O)[C@H](CCC(=O)O)NC(=O)[C@H](CO)NC(=O)[C@H](C)NC(=O)CC[C@H](NC(=O)CCCCCCCCCCCCCCCCCCC(=O)O)C(=O)O)[C@@H](C)O)C(C)C)C(=O)N[C@@H](CO)C(=O)N[C@@H](CCC(N)=O)C(=O)N[C@@H](CCC(=O)O)C(=O)N[C@@H](CC(C)C)C(=O)N[C@@H](Cc1c[nH]cn1)C(=O)N[C@@H](CCC(=O)O)C(=O)N[C@@H](CC(C)C)C(=O)N[C@@H](CCC(N)=O)C(=O)N[C@H](C(=O)N[C@@H](Cc1ccc(O)cc1)C(=O)N1CCC[C@H]1C(=O)N[C@@H](CCCNC(=N)N)C(=O)N[C@H](C(=O)N[C@@H](CCC(=O)O)C(=O)N[C@H](C(=O)NCC(=O)N[C@@H](CO)C(=O)NCC(=O)N[C@H](C(=O)N[C@@H](Cc1ccc(O)cc1)C(N)=O)[C@@H](C)O)[C@@H](C)O)[C@@H](C)O)[C@@H](C)O
With B6, the IC50 in assay [1] was 0.146 nM; in assay [2], 0.278 nM; in assay [3] it was 0.021 nM.
